Consider four molecules from patent US20220340666A1 (NEW YORK UNIVERSITY, published 2022).

In assay [1] the target is T1, human Galectin-9 CRD2 (residues 218-355), biotinylated (human, UniProt O00182 218-355, biotinylated in vitro with BirA (Avitag)).
T1 construct: also called wild type human Galectin-9 CRD2; not shown: hexahistidine tag, Avitag and TEV cleavage site upstream of the cloned gene (pHBT vector)
Nature of the assay: phage ELISA, phage-displayed Fab. The protocol:
FIG. 13 is a graph showing a binding characterization of G9.2 Fab clone for wild-type Galectin-9 CRD2 or the […] mutant using phage ELISA. Binding of Fab clones to human Galectin-9 CRD2 assayed using phage ELISA.
Potential additional epitopes were explored using additional clones that bind to Galectin-9 CRD2. A phage display library selection using a modified scheme so as to enrich clones that bind to an epitope that is distinct from that of G9.2-17 was performed.

Assay [2] concerns the target T2, human Galectin-9 CRD1 (residues 1-148), biotinylated (human, UniProt O00182 1-148, biotinylated in vitro with BirA (Avitag)).
T2 construct: Made as GST fusion, GST cleaved off with thrombin, gel filtered, biotinylated; not shown: Avitag upstream of the cloned gene (pGEX vector), left after thrombin cleavage from GST
Nature of the assay: bead-based binding assay, purified Fab (FIG. 5). The protocol:
The affinities of the antibodies were assessed using a bead-based assay as previously described (Nishikori et al., J Mol Biol, 2012, 424, 391-399) and surface plasmon resonance (SPR). In the bead-based assay, a biotinylated protein (either a Galectin-9 sample or a Fab sample) was immobilized on streptavidin-coated Dynabeads M280 via the biotin-streptavidin interaction. After blocking the excess biotin-binding sites on the beads using unconjugated biotin, binding titration was performed by incubating the second component (i.e., Fab for immobilized Galectin-9 or vice versa), followed by quantification using a dye-labeled neutravidin (ThermoFisher) and flow cytometry analysis. In experiments where the second component is an IgG, a dye-labeled anti-human IgG or anti-mouse IgG antibody was used for detection.

Assay [3] addresses T1, human Galectin-9 CRD2 (residues …). As to the kind of experiment: SPR, Fab over CRD2 on Avicap chip (OneStep). The source says:
FIG. 12 contains charts showing surface plasmon resonance analyses of Fab G9.2-17 (top) and Fab G9.2.17mut6 (bottom) binding to the CRD2 of human (left) and mouse (right) Galectin-9. Human or mouse Galectin-9 CRD2 was immobilized on an Avicap chip preloaded with neutravidin on a Pall ForteBio Pioneer instrument. Fab samples were then flowed using the OneStep method. The binding and dissociation phases of the experiments are marked in the top panels.
In SPR experiments, a biotinylated Galectin-9 sample was immobilized on an Avicap chip (Pall ForteBio) that had been preloaded with neutravidin (ThermoFisher). Antibody samples were flowed using the OneStep method on a Pioneer SPR instrument (Pall ForteBio) and the results are provided in FIG. 6.
(In SPR one partner is held on a chip, and binding of the other changes the refractive index at the surface.)

T1 sequence (O00182 218-355 limits assumed): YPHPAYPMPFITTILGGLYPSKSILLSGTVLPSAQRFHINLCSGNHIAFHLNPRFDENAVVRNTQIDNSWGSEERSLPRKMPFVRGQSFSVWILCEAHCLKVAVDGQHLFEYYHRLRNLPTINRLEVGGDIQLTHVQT
T2 sequence (O00182 1-148): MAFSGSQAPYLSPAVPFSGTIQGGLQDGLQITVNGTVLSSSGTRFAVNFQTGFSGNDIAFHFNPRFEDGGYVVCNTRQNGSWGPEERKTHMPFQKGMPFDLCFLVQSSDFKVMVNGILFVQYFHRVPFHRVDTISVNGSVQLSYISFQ

B1: G9.2-15 Fab (Fab, V domains shown)
VH: EVQLVESGGGLVQPGGSLRLSCAASGFTVSSSSIHWVRQAPGKGLEWVASIYSSSGYTSYADSVKGRFTISADTSKNTAYLQMNSLRAEDTAVYYCARNVENYPYWAWPWGYYGAIDYWGQGTLVTVSS
VL: DIQMTQSPSSLSASVGDRVTITCRASQSVSSAVAWYQQKPGKAPKLLIYSASSLYSGVPSRFSGSRSGTDFTLTISSLQPEDFATYYCQQSSWGLITFGQGTKVEIKR
notes: Avitag at the C-terminus of the heavy chain, biotinylated when required; also called Fab G9.2-15
For the molecule B1, the binding result in assay [1] is “binds”.

B2: G9.2-17 Fab (Fab, V domains shown)
VH: EVQLVESGGGLVQPGGSLRLSCAASGFTVSSSSIHWVRQAPGKGLEWVAYISSSSGYTYYADSVKGRFTISADTSKNTAYLQMNSLRAEDTAVYYCARYWSYPSWWPYRGMDYWGQGTLVTVSS
VL: DIQMTQSPSSLSASVGDRVTITCRASQSVSSAVAWYQQKPGKAPKLLIYSASSLYSGVPSRFSGSRSGTDFTLTISSLQPEDFATYYCQQSSTDPITFGQGTKVEIKR
notes: Avitag at the C-terminus of the heavy chain, biotinylated when required; also called Fab G9.2-17
Turning to B2, the binding result in assay [1] is “binds”.

B3: G9.1-6 Fab (Fab, V domains shown)
VH: EVQLVESGGGLVQPGGSLRLSCAASGFTLSSSSIHWVRQAPGKGLEWVASIYSSYGSTSYADSVKGRFTISADTSKNTAYLQMNSLRAEDTAVYYCARSSHWYMYWSYWGWYIGMDYWGQGTLVTVSS
VL: DIQMTQSPSSLSASVGDRVTITCRASQSVSSAVAWYQQKPGKAPKLLIYSASSLYSGVPSRFSGSRSGTDFTLTISSLQPEDFATYYCQQYHSSLFTFGQGTKVEIKR
notes: Avitag at the C-terminus of the heavy chain, biotinylated when required
With B3, the binding result in assay [2] is given as “binds”.

B4: G9.2-17mut6 Fab (Fab, V domains shown)
VH: EVQLVESGGGLVQPGGSLRLSCAASGFTVSSSSIHWVRQAPGKGLEWVAYISSSSGYTYYADSVKGRFTISADTSKNTAYLQMNSLRAEDTAVYYCARYWSYPSWSPYRGMDYWGQGTLVTVSS
VL: DIQMTQSPSSLSASVGDRVTITCRASQSVSSAVAWYQQKPGKAPKLLIYSASSLYSGVPSRFSGSRSGTDFTLTISSLQPEDFATYYCQQSSTDPITFGQGTKVEIKR
notes: Purified Fab; point mutant of G9.2-17 in CDR-H3; also called Fab G9.2-17mut6; G9.2-17m6
As to B4, in assay [3], the binding result was “binds”.
